In PMC7306997:

What was measured:
[1] = biological target: Aβ42 oligomers formed during the in vitro aggregation of Aβ42 (M1–42) (UniProt P05067); assay: TIRF single-molecule colocalisation imaging
Aβ42 amyloid fibrils = Aβ42 amyloid fibrils (UniProt P05067); assay: microfluidic diffusional sizing

- Kd (Aβ42 amyloid fibrils): 1000 nM
- stoichiometry N (DesAb-O per Aβ42 monomer) (Aβ42 amyloid fibrils): 0.005
Substance: AF647-labeled DesAb-O (antibody)
- percentage of coincidence of ThT and AF647-DesAb-O signals [1]: < 45%
